Results taken from the RNAGym collection of RNA variant scans (doi:10.1073/pnas.2313332121).
Fewer inactive variants are shown than the library holds.

B1: TPR 5TU (parent)
chain: GGAUCUUCUCGAUCUAACAAAAAAGACAAAUCUGCCACAAAGCUUGAGAGCAUCUUCGGAUGCAGAGGCGGCAGCCUUCGGUGGCGCGAUAGCGCCAACGUUCUCAACUAUGACACGCAAAACGCGUGCUCCGUUGAAUGGAGUUUAUCAUG

Variants of: B1
Experiment: polymerase ribozyme fitness, log enrichment relative to wild type (log ratio); higher = more active; in vitro selection for triplet polymerase activity
Method in brief: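 Mutant libraries were PCR-built and transcribed for each subunit of a heterodimeric triplet polymerase ribozyme and selected for one round in triplicate at −7 °C, frozen, before gel excision of extended constructs and streptavidin-bead capture. Input and output libraries were Illumina-sequenced, keeping genotypes with ≥10 input reads and ≥1 read per output. Fitness is a logarithmic ratio of genotype to wild-type enrichment, in base 2, using inverse-variance-weighted replicate averages.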

Going from GGAUCUUCUCGAUGUAACAAAAAAGACAAAUCUGCCACAAAGCUUGAGAGCAUCUUCGGAUGCAGAGGCGGCAGCCUUCGGUGGCGCGAUAGCACCAACGUUCUCAACUAUGACACGCAAAACGCGUGCUCCGUUGAAUGGAGUUUAUCAUG [C14G G94A] to GGAUCUUCUCGAUGUAACAAAAAAGACAAAUCUGCCACAAAGCUUGAGAGCAUCUUCGGAUGCAGAGGCGGCAGCCUUCGGUGGCGCGAUAGCCCCAACGUUCUCAACUAUGACACGCAAAACGCGUGCUCCGUUGAAUGGAGUUUAUCAUG [C14G G94C], the “polymerase ribozyme fitness (log ratio)” value rises from -2.61 to -2.23.

First: GGAUCUUCUCGAUGUAACAAAAAAGACAAAUCUGCCACAAAGCUUGAGAGCAUCUACGGAUGCAGAGGCGGCGGCCUUCGGUGGCGCGAUAGCGCCAACGUUCUCAACUAUGACACGCAAAACGCGUGCUCCGUCGAAUGGAGUUUAUCAUG [C14G U56A A73G U135C]
Second: GGAUCUUCUCGAUGUAACAAAAAAGACAAAUCUGCCACAAAGCUUGAGAGCAUCAUCGGAUGCAGAGGCGGCAGCCUUCGGUGGCGCGAUAGCGCUAACGUUCUCAACUAUGACACGCAAAACGCGUGCUCCGUUGAAUGGAGUUUAUCAUG [C14G U55A C96U]
The “polymerase ribozyme fitness (log ratio)” value of the first is lower: -4.12 for the first, -3.27 for the second.

First: GGAUCUUCUCGAUGUAACAAAAAAGACAAAUCUGCCACAAAGCUUGAGAGCAUCUUCGGAUGCAGAGGCGGCAGCCUUCGGAGGCGCGAUAGCGCCAACGGUCUCAACUAUGACACGCAAAACGCGUGCUCCGUUGAAUGGAGUUUAUCAUG [C14G U82A U101G]
Second: GGAUCUUCUCGAUUUAACAACAAAGACAAAUCUGCCACAAAGCUUGAGAGCAUCUUCGGAUGCAGAUGCGGCAGCCAUCGGUGGGGCGAUAGCGCUAACGUUCUCAACUAUGACACGCAAAACGCGGGCUCCGUUGAAUGGAGUUUAUCAUG [C14U A21C G67U U77A C85G C96U U127G]
The “polymerase ribozyme fitness (log ratio)” value of the first is higher: -2.29 for the first, no more than -4.2 for the second.

GGAUCUUCUCGAUUUAACAAGAAAGACAAAUCUGCCAGAAAGCUUGAGAGCAUCUUAGGAUGCAGAGGCGGCAGCCUUUGGUGGCGCGAUAGCGCCAACGUUCUCAACUAUGACACGCAAAACGCGUGCUCCGUUGACUGGAGUUUACCAUG [C14U A21G C38G C57A C79U A138C U148C] and GGAUCUUCUCGAUUUUACAAAAAAGAAAAGUCUGCCACAAAUCUUGAGAGUAUCUUCGGAUGCAGAGGCGGCAGCCUUCGGUGGCGCGAUAGAGCCAACGUUCUCAACUAUGACACGCAAAACGCGUGCUCCGUUGAAUGGAGUUUAUCAUG [C14U A16U C27A A30G G42U C51U C93A] cannot be ordered by “polymerase ribozyme fitness (log ratio)” value: no more than -4.2 for the first, no more than -4.2 for the second.

First: GGAUCUUCUCGAUGAAAUAAAAAAUAGAAAUCUGCCACAAAGCUUGAGAGCAUCUUCGGAUACAGAGGCGGCAGCCUUCGGUGGGGCGAUAGCGCCAACGUUCUCAACUAUGACACGCAAAACGCGUGCUCCGUUGACUGGAGUUUAUCAUG [C14G U15A C18U G25U C27G G62A C85G A138C]
Second: GGAUCUUCUCGAUUUAACAAAAAAGACAAAUCUGCCACAAAGCUUGAGAGCAUCUUCGGAUGCAGAGGCGGCAGCCUUCGGUGGCGCGAUAGCGCCAACGUUCUCAACUAUGACACGCAAAACGCGUGCUCCGUUGAAUGGAGUUUAUCAUG [C14U]
The “polymerase ribozyme fitness (log ratio)” value of the first is lower: no more than -4.2 for the first, -1.06 for the second.

First: GGAUCUUCUCGAUUUAACAACAAAGAUAAAUCUGCAACAAAGCUUGAGAGCAUCUUCGGAUUCAGAGGCGGCAGCCUUCCGUGGCACGAUAGCGCCAACGUUCUCAACUAUGACACGCAAAACGCGUGCUCCGUUGCAUGGAGUUUAUCAUG [C14U A21C C27U C36A G62U G80C G86A A137C]
Second: GGAUCUUCUCGAUGUAACAAAAAAGACAAAUCUGCCACAAAGCUUGAGAGCAUCUACGGAUGCAGAGGCGGCAGCCUUCGGUGGCGCGAUAGCGCCAACGUUCUCAACUAUGACACGCAAAACGCGUGCUCCGUUGAAUGGAGUUUAUCAUG [C14G U56A]
The “polymerase ribozyme fitness (log ratio)” value of the first is lower: -3.96 for the first, -2.57 for the second.

GGAUCUUCUCGAUGAAACAAAAAAGACAAAUCUGCCACAAAGCUUGAGAGCAUUUUCGGAUGCAGAGGAGGCAGCCUUCGGUGGCGCGAUAGCGCCAAAGUUCUCAACUAUGACACGCAAAACGCGUGCUCCGUUGAAUGGAGUUUAACAUG [C14G U15A C54U C69A C99A U148A] and GGAUCUUCUCGAUUUAACAAGAACGACUAAUCUGCCACAAAGCUUGAGAGCACCUUCGGAUGCAGAGGCGGCAGUCUUCGGUGGCGCGAUAGCGCCAACGUUCUCAACUAUGACACGCAAAACGCGUGCUCCGUUGAAUGGAGUUUAUCAUG [C14U A21G A24C A28U U53C C75U] cannot be ordered by “polymerase ribozyme fitness (log ratio)” value: no more than -4.2 for the first, no more than -4.2 for the second.

Compared with GGAUCUUCUCGAUUUAACACAAAAGACAAAUCUGCCACGAAGCUUGAGAGCGUCUACGGAUGCAGAGGCGGCAGCCUUCGGUGGCGCGAUAGCGCAAACGUUCUCAACUAUGACACGCAAUACGCGUGCUCCGUUGAAUGGAGUUUAUCAUG [C14U A20C A39G A52G U56A C96A A121U], GGAUCUUCUCGAUGUAACAAAAAAGACAAAUCUGCCACAAAGCUUGAGAGCAUCUUCGGAUGCAGAGGCGGCAGCCUUCGGUGGCGCGAUAGCGCCAACGUUCUCAACUAUGACACGCAAAACGCGUGCUCCGUUGAAGGGAGGUUAUCAUG [C14G U139G U144G] is higher in “polymerase ribozyme fitness (log ratio)” value: -4 for the first, -1.38 for the second.

GGAUCUUCUCGAUGAAACAAAAAAGACAAAUCUGCCACAAAGCUUGAGAGCAUCUUCGGAUGCAGAGCCGGCAGCCUUCGGUAGCGCGAUAGCGCCAACGUUCUCAACUACGACACGCAAAACGCGUGCUCCGUUGAAUGGAGUUUAUCAUG [C14G U15A G68C G83A U111C] and GGAUCUUCUCGAUGUAACAAAAAAGACAAAACUGCCACAUAGCUUGAGAGCAUCUUCGGAUGCAGAGGCGGCAGCCUUCGGUGGCGCGAGAACGCCAACGUUCUCAGCUAUAACACGCAAAACGCGUGCUCCUUUGAAUGAAGUUUAUCAUG [C14G U31A A40U U90G G92A A107G G112A G133U G141A] cannot be ordered by “polymerase ribozyme fitness (log ratio)” value: no more than -4.2 for the first, no more than -4.2 for the second.

With GGAUCUUCUCGAUUUAACAAUAAAGACAAAUCUGCCACAAAGCUUGAGACCAUCUACGGAUGCAGCGGCGGCAGCCUUCGGUGGCGCGAUUGCGCCAACGUUCUCAACUAUGACACGCAAAACGCGUGCUCCGUUGAAUGGACUUUAUCAUG [C14U A21U G50C U56A A66C A91U G143C] the “polymerase ribozyme fitness (log ratio)” value was no more than -4.2.
